Results: patent publication US9274110B2, “Diagnosis method of active tuberculosis” (priority 2011, dated 2016)

Legend:
[1] = Activity of rLipC or cutinase on p-nitrophenyl esters (release of p-NP at 410 nm); type: biochemical; conditions: for Specific Activity, pNP-butyrate (C4): substrate pNP-butyrate (C4); for Specific Activity, pNP-butyrate (C4) / Specific Activity, pNP-caprate (C10) / Specific Activity, pNP-caprylate (C8) / Specific Activity, pNP-laurate (C12) / Specific Activity, pNP-myristate (C14) / Specific Activity, pNP-valerate (C5): 1 mM, Tris buffer pH 8.0, 300 mM NaCl, 4 mM NaTDC, 15 min; for Specific Activity, pNP-caprate (C10): substrate pNP-caprate (C10); for Specific Activity, pNP-caprylate (C8): substrate pNP-caprylate (C8); for Specific Activity, pNP-laurate (C12): substrate pNP-laurate (C12); for Specific Activity, pNP-myristate (C14): substrate pNP-myristate (C14); for Specific Activity, pNP-valerate (C5): substrate pNP-valerate (C5)
[2] = pH-stat, fluorescent and spectrophotometric assays for lipase or phospholipase activity on various lipids; type: biochemical
Excerpt: rLipC activity was also investigated using pH-stat, fluorescent and spectrophotometric assays for various lipids, as well as phospholipids, to detect lipase or phospholipase activity, respectively.

Molecule	Specific Activity, pNP-butyrate (C4) [1]	Specific Activity, pNP-caprate (C10) [1]	Specific Activity, pNP-caprylate (C8) [1]	Specific Activity, pNP-laurate (C12) [1] [U · mg^−1]	Specific Activity, pNP-myristate (C14) [1] [U · mg^−1]	Specific Activity, pNP-valerate (C5) [1]	Hydrolysis of esters function associated with a fatty acyl chain having more than 10 carbons ([1]; summary of Table 1)	Long-chain triglycerides (TG) hydrolysis ([2]; cloned and characterized protein, see example 1)	Activity on triglycerides, diglycerides or monoglycerides as substrate ([2]; pH-stat, fluorescent and spectrophotometric assays, whatever the carbon chain length)
Cutinase F. solani: cutinase from F. solani, comparison enzyme [reference compound]	382 ± 22 U · mg^−1	9 ± 1 U · mg^−1	14 ± 3 U · mg^−1	1 ± 0.4	1 ± 0.2	78 ± 0.5 U · mg^−1			
Rv0220: M. tuberculosis Lip family protein Rv0220 (LipC), recombinant; shown not to be a lipolytic enzyme (protein, UniProt P96402 1-403, looked up) Esterase LipC: MNQRRAAGSTGVAYIRWLLRARPADYMLALSVAGGSLPVVGKHLKPLGGVTAIGVWGARHASDFLSATAKDLLTPGINEVRRRDRASTQEVSVAALRGIVSPDDLAVEWPAPERTPPVCGALRHRRYVHRRRVLYGDDPAQLLDVWRRKDMPTKPAPVLIFVPGGAWVHGSRAIQGYAVLSRLAAQGWVCLSIDYRVAPHHRWPRHILDVKTAIAWARANVDKFGGDRNFIAVAGCSAGGHLSALAGLTANDPQYQAELPEGSDTSVDAVVGIYGRYDWEDRSTPERARFVDFLERVVVQRTIDRHPEVFRDASPIQRVTRNAPPFLVIHGSRDCVIPVEQARSFVERLRAVSRSQVGYLELPGAGHGFDLLDGARTGPTAHAIALFLNQVHRSRAQFAKEVI	133 × 10^−3 U · mg^−1	2 × 10^−3 U · mg^−1	22 × 10^−3 U · mg^−1	0	0	111 × 10^−3 U · mg^−1	not able to hydrolyse	no long-chain triglycerides (TG) hydrolysis was detected	does not show any activity
